We go through one molecule from patent publication US20240191211A1, “BIOLUMINESCENCE-TRIGGERED PHOTOCATALYTIC LABELING” (Promega Corporation, priority 2022, published 2024).

In this experiment the target is LgBiT-HaloTag. The experiment can be described thus: luminescence saturation binding: VS-HiBiT titrated 200-0 nM against 0.2 nM fusion.
Chain of LgBiT-HaloTag (chain, as listed by the source limits assumed): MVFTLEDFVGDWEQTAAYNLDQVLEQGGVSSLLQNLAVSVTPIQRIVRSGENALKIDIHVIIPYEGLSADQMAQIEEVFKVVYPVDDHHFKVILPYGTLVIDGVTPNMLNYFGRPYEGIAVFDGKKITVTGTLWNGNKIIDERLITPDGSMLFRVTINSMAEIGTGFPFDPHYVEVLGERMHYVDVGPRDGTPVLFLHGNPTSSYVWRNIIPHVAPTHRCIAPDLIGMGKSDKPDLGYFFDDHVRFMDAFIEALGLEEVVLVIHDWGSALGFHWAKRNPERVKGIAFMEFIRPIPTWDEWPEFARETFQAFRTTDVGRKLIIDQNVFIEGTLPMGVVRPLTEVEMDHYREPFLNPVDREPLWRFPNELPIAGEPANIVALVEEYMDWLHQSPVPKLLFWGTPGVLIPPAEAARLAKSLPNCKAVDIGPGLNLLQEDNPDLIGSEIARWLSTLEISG

VSGWRLFKKIS (modifications not checked) [VS-HiBiT peptide]: the fold complementation affinity (against the VS-HiBiT/HaloTag-LgBiT configuration) turned out to be 3 fold.
